According to patent US20140004122A1, “METHODS FOR TREATING OR PREVENTING CHOLESTEROL RELATED DISORDERS” (AMGEN INC., priority 2011, published 2014):
Entries after “also recorded” stand apart in the source; their conditions may differ. Marks after values point to notes of the source that are not given here.

Experiments:
[1] = test system: subjects with hyperlipidemia on stable doses of a statin; assay: Phase 1b ascending multiple dose study on stable statin (Example 21); assay type: in vivo
Protocol: The study had seven cohorts. […] Cohort 6 was conducted in hypercholesterolemic subjects on high doses of a statin (atorvastatin 80 mg or rosuvastatin 40 mg).

[2] = test system: hypercholesterolemic subjects with a 10 year Framingham risk score of 10% or less; assay: 12 week monotherapy dose-ranging study (Example 24); assay type: in vivo, human; conditions: for mean percent reduction from baseline in LDL-C: preliminary; for Least squares mean percent change from baseline (%) in LDL-C / Treatment difference vs ezetimibe (%) in LDL-C / Treatment difference vs placebo (%) in LDL-C: week 12; for Treatment difference vs ezetimibe (%) in LDL-C / Treatment difference vs placebo (%) in LDL-C: P < 0.001
Protocol: Ezetimibe was not blinded. The end-of-study visit and the last estimation of lipids was at week 12 for subjects on Q4W IP schedule or on ezetimibe and week 14 for subjects on Q2W IP schedule.
Males and females, ≧18 to ≦75 years of age, were eligible for this study. Fasting LDL-C was ≧100 mg/dL (2.6 mmol/L) and <190 mg/dL (4.9 mmol/L) and fasting triglycerides ≦400 mg/dL (4.5 mmol/L) by central laboratory at screening.
The primary endpoint was the percent change from baseline in LDL-C at week 12. Secondary endpoints included percent changes in apolipoprotein B (ApoB), lipoprotein (a) (Lp(a)), and in the ratio of total cholesterol to high-density lipoprotein (HDL)-C. Tolerability and safety were also evaluated.

[3] = biological target: human PCSK9 (Homo sapiens, UniProt Q8NBP7); assay: BIAcore affinity analysis; assay type: binding; conditions: human PCSK9, pH 6.0, n=1
[4] = test system: subjects with hypercholesterolemia on a statin; assay: 12 week dose-ranging study in combination with statin (Example 25); assay type: in vivo, human; conditions: preliminary
Protocol: Randomization will be stratified by screening LDL-C level (<130 mg/dL [3.4 mmol/L] vs≧130 mg/dL) and ezetimibe use at baseline (yes vs no). Randomization should occur within 5-10 days of the screening LDL-C evaluation used to determine eligibility. Study visits are every 2 weeks, irrespective whether the subject receives Q2W SC or Q4W treatment. […] The end-of-study visit and the last estimation of lipids is at week 12 for subjects on Q4W IP schedule and week 14 for subjects on Q2W IP schedule.
Males and females, ≧18 to ≦80 years of age, are eligible for this study. For enrollment, subjects must be on a statin, with or without ezetimibe, with stable dose(s) for at least 4 weeks before LDL-C screening and not requiring uptitration. Fasting LDL-C at screening must be ≧85 mg/dL (2.2 mmol/L). Enrollment of subjects with screening fasting LDL-C between ≧85 mg/dL (2.2 mmol/L) and <100 mg/dL (2.6 mmol/L) will be limited to no more than approximately 20% of total planned enrollment. Fasting triglycerides must be ≦400 mg/dL (4.5 mmol/L) as determined by the central laboratory analysis at screening.

[5] = test system: patients from four studies described in Examples 22-25; assay: Aggregate data of the studies of Examples 22-25; assay type: in vivo, human
[6] = cohort 6, high-dose statins, 140 mg SC Q2W 3 times
[7] = 70 mg (Q2W), end of the dosing interval
[8] = 105 mg (Q2W), end of the dosing interval
[9] = 280 mg (Q4W), end of the dosing interval
[10] = 350 mg, end of the dosing interval
[11] = 280 mg (Q2W as printed), end of the dosing interval
[12] = 350 mg (Q2W as printed), end of the dosing interval

Sequence of human PCSK9 (Q8NBP7 153-692): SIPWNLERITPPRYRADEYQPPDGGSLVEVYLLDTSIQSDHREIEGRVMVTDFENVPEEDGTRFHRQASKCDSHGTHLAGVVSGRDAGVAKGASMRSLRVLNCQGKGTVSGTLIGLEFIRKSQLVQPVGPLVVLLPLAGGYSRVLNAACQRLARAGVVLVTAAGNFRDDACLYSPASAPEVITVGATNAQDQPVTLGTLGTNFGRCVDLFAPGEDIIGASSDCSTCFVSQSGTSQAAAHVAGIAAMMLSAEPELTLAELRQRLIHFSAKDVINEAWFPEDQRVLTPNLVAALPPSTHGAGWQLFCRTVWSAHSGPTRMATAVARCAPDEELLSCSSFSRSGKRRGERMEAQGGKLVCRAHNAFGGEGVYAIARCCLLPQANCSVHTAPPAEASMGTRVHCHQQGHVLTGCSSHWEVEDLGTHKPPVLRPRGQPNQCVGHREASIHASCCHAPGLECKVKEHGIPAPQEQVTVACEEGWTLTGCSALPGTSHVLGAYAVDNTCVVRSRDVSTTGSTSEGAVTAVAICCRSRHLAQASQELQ

B1: 21B12: human anti-PCSK9 monoclonal antibody; light/heavy variable region SEQ ID NO 23/49 (antibody, listed as Homo sapiens, V domains shown)
VH: QVQLVQSGAEVKKPGASVKVSCKASGYTLTSYGISWVRQAPGQGLEWMGWVSFYNGNTNYAQKLQGRGTMTTDPSTSTAYMELRSLRSDDTAVYYCARGYGMDVWGQGTTVTVSS
VL: QSALTQPASVSGSPGQSITISCTGTSSDVGGYNSVSWYQQHPGKAPKLMIYEVSNRPSGVSNRFSGSKSGNTASLTISGLQAEDEADYYCNSYTSTSMVFGGGTKLTVL
maximum ApoB reduction during the study ([1]; 35 mg QW): 48%
maximum ApoB reduction during the study ([1]; 140 mg and 280 mg Q2W and 420 mg Q4W): 59%
plasma PCSK9 ([1]; at higher doses): undetectable
suppression of PCSK9 ([1]; cohort 3, 140 mg Q2W SC 3 times, preliminary): Near-complete suppression of PCSK9
maximum reduction in LDL-C versus placebo [1, 6]: 73%
mean reduction in LDL-C vs placebo at the end of the dosing interval [1, 6]: 63%
maximum LDL-C reduction versus placebo ([1]; cohort 7 heFH): 70%
maximum reduction of ApoB versus placebo ([1]; cohort 7 heFH): 57%
maximum reduction of non-HDL cholesterol versus placebo ([1]; cohort 7 heFH): 67%
maximum total cholesterol reduction versus placebo ([1]; cohort 7 heFH): 47%
serious AEs ([1]; cohort 7 heFH): No serious AEs were reported
mean reduction in LDL-C vs placebo at the end of the dosing interval ([1]; cohort 7 heFH, 140 mg SC Q2W 3 times, week 6): 65%
mean reduction in ApoB levels vs placebo ([1]; cohort 7 heFH, week 6): up to 47%
mean reduction in lipoprotein a (Lp(a)) vs placebo ([1]; cohort 7 heFH, week 6): 50%
mean reduction in non-HDL cholesterol vs placebo ([1]; cohort 7 heFH, week 6): 61%
mean reduction in serum PCSK9 values vs placebo ([1]; cohort 7 heFH, week 6): 78%
mean reduction in total cholesterol vs placebo ([1]; cohort 7 heFH, week 6): up to 42%
mean ApoB reduction vs placebo at the end of the dosing interval ([1]; cohorts 1-5): up to 54%
mean reduction of PCSK9 levels vs placebo at the end of the dosing interval ([1]; cohorts 1-5): up to 94%
mean LDL-C reduction vs placebo at maximal reduction ([1]; cohorts 1-5, low to moderate doses of statins, 3 biweekly SC doses): up to 81%
mean LDL-C reduction vs placebo at the end of the dosing interval ([1]; cohorts 1-5, week 6 after 3 biweekly SC doses): ≤ 75%
mean LDL-C reduction at the end of the dosing interval ([1]; cohorts 1-5, week 8 after 2 every 4 week SC doses): ≤ 66%
mean Lp(a) reduction vs placebo at the end of the dosing interval ([1]; cohorts 1-6): up to 43%
deaths or serious adverse events ([1]; cohorts 1-6, final results): No deaths or serious adverse events (AEs) were reported; also recorded: no serious AEs
neutralizing antibodies to 21B12 ([1]; cohorts 1-6, final results): No neutralizing antibodies to 21B12 were detected
circulating PCSK9 ([1]; heFH subjects after treatment): undetectable
LDL-C nadir observed within (after initial dosing) ([1]; preliminary, cohorts 1-3, stable moderate doses of statins): ≤ 2 weeks
decrease of circulating LDL-C vs placebo ([1]; repeated SC doses over 6 weeks, low-to-moderate or high-dose statins): up to 81%
mean percent reduction from baseline in LDL-C [2, 7]: 41.21%
mean percent reduction from baseline in LDL-C [2, 8]: 45.44%
mean percent reduction from baseline in LDL-C ([2]; 140 mg (Q2W)): 51.56%
mean percent reduction from baseline in LDL-C [2, 9]: 37.53%
mean percent reduction from baseline in LDL-C [2, 10]: 42.16%
mean percent reduction from baseline in LDL-C ([2]; 420 mg): 47.52%
LDL-C reductions from baseline greater than ezetimibe ([2]; final data): 37%
change in LDL-C from baseline to week 12 greater than with placebo ([2]; final data): up to 72 mg/dL
mean reduction from baseline for ApoB ([2]; final data): up to 44%
mean reduction from baseline for Lp(a) ([2]; final data): up to 29%
least-squares (LS) mean percent reduction from baseline in LDL-C ([2]; week 12, final data): up to 51%
Least squares mean percent change from baseline (%) in LDL-C ([2]; Q2W 70 mg SC (N = 45)): −40.98%
Treatment difference vs ezetimibe (%) in LDL-C ([2]; Q2W 70 mg): −26.73* %
Treatment difference vs placebo (%) in LDL-C ([2]; Q2W 70 mg): −37.27* %
Least squares mean percent change from baseline (%) in LDL-C ([2]; Q2W 105 mg SC (N = 46)): −43.87%
Treatment difference vs ezetimibe (%) in LDL-C ([2]; Q2W 105 mg): −29.62* %
Treatment difference vs placebo (%) in LDL-C ([2]; Q2W 105 mg): −40.17* %
Least squares mean percent change from baseline (%) in LDL-C ([2]; Q2W 140 mg SC (N = 45)): −50.93%
Treatment difference vs ezetimibe (%) in LDL-C ([2]; Q2W 140 mg): −36.68* %
Treatment difference vs placebo (%) in LDL-C ([2]; Q2W 140 mg): −47.23* %
Least squares mean percent change from baseline (%) in LDL-C ([2]; Q4W 280 mg SC (N = 45)): −39.02%
Treatment difference vs ezetimibe (%) in LDL-C ([2]; Q4W 280 mg): −25.17* %
Treatment difference vs placebo (%) in LDL-C ([2]; Q4W 280 mg): −43.57* %
Least squares mean percent change from baseline (%) in LDL-C ([2]; Q4W 350 mg SC (N = 45)): −43.20%
Treatment difference vs ezetimibe (%) in LDL-C ([2]; Q4W 350 mg): −29.34* %
Treatment difference vs placebo (%) in LDL-C ([2]; Q4W 350 mg): −47.74* %
Least squares mean percent change from baseline (%) in LDL-C ([2]; Q4W 420 mg SC (N = 45)): −47.98%
Treatment difference vs ezetimibe (%) in LDL-C ([2]; Q4W 420 mg): −34.14* %
Treatment difference vs placebo (%) in LDL-C ([2]; Q4W 420 mg): −52.53* %
Kd [3]: 7.3 pM
LS mean percent increase from baseline in HDL-C [4, 7]: 21.17%
LS mean percent reduction from baseline in LDL-C [4, 7]: 39.22%
LS mean percent reduction from baseline in Lp(a) [4, 7]: 21.17%
LS mean percent reduction from baseline in VLDL-C [4, 7]: 14.84%
LS mean percent reduction from baseline in non-HDL-C [4, 7]: 36.20%
LS mean percent reduction from baseline in total cholesterol [4, 7]: 26.33%
LS mean percent reduction from baseline in triglycerides [4, 7]: 7.20%
LS mean percent increase from baseline in HDL-C [4, 8]: 6.80%
LS mean percent reduction from baseline in LDL-C [4, 8]: 56.38%
LS mean percent reduction from baseline in Lp(a) [4, 8]: 33.41%
LS mean percent reduction from baseline in VLDL-C [4, 8]: 12.75%
LS mean percent reduction from baseline in non-HDL-C [4, 8]: 51.20%
LS mean percent reduction from baseline in total cholesterol [4, 8]: 36.91%
LS mean percent reduction from baseline in triglycerides [4, 8]: 5.65%
LS mean percent increase from baseline in HDL-C ([4]; 140 mg (Q2W)): 8.43%
LS mean percent reduction from baseline in LDL-C ([4]; 140 mg (Q2W)): 68.76%
LS mean percent reduction from baseline in Lp(a) ([4]; 140 mg (Q2W)): 33.87%
LS mean percent reduction from baseline in VLDL-C ([4]; 140 mg (Q2W)): 45.14%
LS mean percent reduction from baseline in non-HDL-C ([4]; 140 mg (Q2W)): 64.61%
LS mean percent reduction from baseline in total cholesterol ([4]; 140 mg (Q2W)): 46.17%
LS mean percent reduction from baseline in triglycerides ([4]; 140 mg (Q2W)): 17.60%
LS mean percent increase from baseline in HDL-C [4, 11]: 2.17%
LS mean percent reduction from baseline in Lp(a) [4, 11]: 22.54%
LS mean percent reduction from baseline in VLDL-C [4, 11]: 18.12%
LS mean percent reduction from baseline in non-HDL-C [4, 11]: 38.89%
LS mean percent reduction from baseline in total cholesterol [4, 11]: 28.08%
LS mean percent reduction from baseline in triglycerides [4, 11]: 6.75%
LS mean percent reduction from baseline in LDL-C [4, 9]: 42.62%
LS mean percent increase from baseline in HDL-C [4, 12]: 6.92%
LS mean percent reduction from baseline in Lp(a) [4, 12]: 29.43%
LS mean percent reduction from baseline in VLDL-C [4, 12]: 20.89%
LS mean percent reduction from baseline in non-HDL-C [4, 12]: 50.83%
LS mean percent reduction from baseline in total cholesterol [4, 12]: 36.04%
LS mean percent reduction from baseline in triglycerides [4, 12]: 9.17%
LS mean percent reduction from baseline in LDL-C [4, 10]: 56.84%
LS mean percent increase from baseline in HDL-C ([4]; 420 mg (Q2W as printed)): 7.42%
LS mean percent reduction from baseline in Lp(a) ([4]; 420 mg (Q2W as printed)): 23.29%
LS mean percent reduction from baseline in VLDL-C ([4]; 420 mg (Q2W as printed)): 28.66%
LS mean percent reduction from baseline in non-HDL-C ([4]; 420 mg (Q2W as printed)): 48.54%
LS mean percent reduction from baseline in total cholesterol ([4]; 420 mg (Q2W as printed)): 42.76%
LS mean percent reduction from baseline in triglycerides ([4]; 420 mg (Q2W as printed)): 11.13%
LS mean percent reduction from baseline in LDL-C ([4]; 420 mg): 52.19%
reduction from baseline in LDL-C at week 12 ([5]; 140 mg Q2W): ~60%
reduction from baseline in LDL-C at week 12 ([5]; 420 mg Q4W): ~56%
dose dependent reduction from baseline in ApoB ([5]; p values <0.001): 36-53%
dose dependent reduction from baseline in non-HDL-C ([5]; p values <0.001): 36-53%
dose dependent reduction from baseline in total cholesterol ([5]; p values <0.001): 25-37%
